The text below walks through data of publication doi:10.1101/2025.06.20.660733 (bioRxiv, 2025).

Test [1] concerns the target neuraminidase of A/Moscow/10/1999 (H3N2), recombinant head domain (Influenza A virus A/Moscow/10/1999 …, strain). The test is described as follows: BLI. As to conditions: both partners purified.
The target in test [2] is neuraminidase of A/Michigan/45/2015 (H1N1), recombinant head domain (Influenza A virus A/Michigan/45/2015 …, UniProt A0A0X9QTS2, strain). The test is described as follows: ELISA. As to conditions: one partner purified. For orientation: ELISA stands for enzyme-linked immunosorbent assay.
Test [3] has as its target neuraminidase of A/Wyoming/3/2003 (H3N2), recombinant head domain (Influenza A virus A/Wyoming/3/2003 …, UniProt Q595Z6, strain). The test is described as follows: cell-based or functional assay.

B1: HB420 with all SHMs reverted (Fab) (Fab, V domains shown)
VH: EVQLVQSGAEVKKPGSSVKVSCKASGGTFSSYAISWVRQAPGQGLEWMGGIIPIFGTANYAQKFQGRVTITADESTSTAYMELSSLRSEDTAVYYCARDSLPYGDQNYYYGMHVWGQGTTVTVSS
VL: QSALTQPASVSGSPGQSITISCTGTSSDVGGYNYVSWYQQHPGKAPKLMIYDVSNRPSGVSNRFSGSKSGNTASLTISGLQAEDEADYYCSSYTSNYNLVFGGGTKLTVL
As to B1, the Kd in test [1] turned out to be 1.8 nM.

B2: HB420 (human IgG1) (antibody, V domains shown)
VH: EVQLVESGAEVKKPGSSVKVSCMASGGSFGSYGFSWVRQAPGQGLEWMGGIIPLFDTPNYAQKFQGRVTITADASTSTVYMELSSLRSEDTAVYYCARDSLPYGDQNYYYGMHVWGQGTTVTVSS
VL: QSALTQPASLSGSPGQSITISCSGSSSDIGDYNYVSWYQQHPGKAPKLIIYDVTNRPSGVSDRLSGSKSGTTASLTISGLQAEDEADYYCSSYGGNYNLVFGGGTKLTVL
B2: the binding result in test [2] was “no binding”. Moreover, in test [3], the “NA inhibition of recombinant NA by enzyme-linked lectin assay (ELLA), IC50” value is 0.19 µg/mL.

B3: HB420 with only light chain SHMs reverted (Fab) (Fab, V domains shown)
VH: EVQLVESGAEVKKPGSSVKVSCMASGGSFGSYGFSWVRQAPGQGLEWMGGIIPLFDTPNYAQKFQGRVTITADASTSTVYMELSSLRSEDTAVYYCARDSLPYGDQNYYYGMHVWGQGTTVTVSS
VL: QSALTQPASVSGSPGQSITISCTGTSSDVGGYNYVSWYQQHPGKAPKLMIYDVSNRPSGVSNRFSGSKSGNTASLTISGLQAEDEADYYCSSYTSNYNLVFGGGTKLTVL
Take B3: in test [1], the Kd was < 1 nM.

B4: HB420 with only heavy chain SHMs reverted (Fab) (Fab, V domains shown)
VH: EVQLVQSGAEVKKPGSSVKVSCKASGGTFSSYAISWVRQAPGQGLEWMGGIIPIFGTANYAQKFQGRVTITADESTSTAYMELSSLRSEDTAVYYCARDSLPYGDQNYYYGMHVWGQGTTVTVSS
VL: QSALTQPASLSGSPGQSITISCSGSSSDIGDYNYVSWYQQHPGKAPKLIIYDVTNRPSGVSDRLSGSKSGTTASLTISGLQAEDEADYYCSSYGGNYNLVFGGGTKLTVL
For B4, in test [1], the Kd turned out to be 1.1 nM.

B5: HB420 fragment antigen-binding (Fab) (Fab, V domains shown)
VH: EVQLVESGAEVKKPGSSVKVSCMASGGSFGSYGFSWVRQAPGQGLEWMGGIIPLFDTPNYAQKFQGRVTITADASTSTVYMELSSLRSEDTAVYYCARDSLPYGDQNYYYGMHVWGQGTTVTVSS
VL: QSALTQPASLSGSPGQSITISCSGSSSDIGDYNYVSWYQQHPGKAPKLIIYDVTNRPSGVSDRLSGSKSGTTASLTISGLQAEDEADYYCSSYGGNYNLVFGGGTKLTVL
Turning to B5, in test [1], the Kd is < 1 nM.

A word on the Kd: it is the concentration at which binding is half-saturated.
